This note sets out measurements from patent US20100285039A1, “B7-H1 (CD274) Antagonists Induce Apoptosis of Tumor Cells” (THE JOHNS HOPKINS UNIVERSITY, priority 2008, published 2010).

Assay [1] addresses wild type murine B7-H1 expressed on P815 cells (B7-H1/P815) (mouse) (UniProt Q9EP73). Description: cell-based or functional assay.
The next assay has as its system B7-H1/P815 cells. The experiment in a line: Staurosporine induced apoptosis (annexin V/PI). Type of assay: cell-based, mouse. Particulars: Staurosporine (STP 1 μM), control Ig-treated cells.

Sequence of wild type murine B7-H1 expressed on P815 cells (B7-H1/P815) (mouse) (Q9EP73 19-290): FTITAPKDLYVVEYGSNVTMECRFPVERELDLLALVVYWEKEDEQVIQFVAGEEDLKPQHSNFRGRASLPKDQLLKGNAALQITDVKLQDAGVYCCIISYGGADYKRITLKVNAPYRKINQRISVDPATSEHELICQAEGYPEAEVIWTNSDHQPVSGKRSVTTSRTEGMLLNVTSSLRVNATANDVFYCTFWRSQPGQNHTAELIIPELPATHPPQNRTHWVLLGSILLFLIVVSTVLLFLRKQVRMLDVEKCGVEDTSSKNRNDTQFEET
Description for B7-H1/P815 cells: PD-1Ig fusion protein or control IgG were coated on 96 well-plates for 18 hr at 4° C. Full length B7-H1/P815 cells were cultured with STP (1 μM) in the well coated PD-1Ig or control IgG. Cells were harvested after 24 hr and stained with annexin V (BD PharMingen) at 5 μl/test, propidium iodide (PI) (Sigma-Aldrich) at 5 μg/ml for 1 hour and monoclonal antibodies against H-2D^d. Apoptosis was calculated as the percentage of annexin V+PI-cells gated in the H-2D^d+ fractions.
B7-H1 was assayed to determine whether it confers resistance to drugs which induce apoptosis of tumor cells. […] Staurosporine is often used as a general method for inducing apoptosis of tumor cells.

For “wild type murine PD-1 expressed on transduced PD-1KO 2C CTLs (PD-1/PD-1^02C) (from UniProt Q02242 25-288) (receptor)”, the cytolytic activity of CTLs against B7-H1/P815 targets in assay [1] was determined as 50%.
For `CN[C@@H]1C[C@H]2O[C@@](C)([C@@H]1OC)n1c3ccccc3c3c4c(c5c6ccccc6n2c5c31)C(=O)NC4` [Staurosporine], the “apoptosis of B7-H1/P815 cells” value in the assay with B7-H1/P815 cells is 74.9%.
